Source: patent US20260055205A1 (published 2026)

Legend:
[1] = biological target: T1, human PSMA-Fc (human, UniProt Q04609 44-750); test: Octet, PSMA-Fc
T1 construct: also called Human PSMA-Fc fusion
Description: Binding affinity of select PSMA PTE variants was tested by Octet.

[2] = biological target: T1, human PSMA-Fc; test: Octet
[3] = biological target: T2, human PSMA (human, UniProt Q04609 44-750, limits assumed); test: binding screen
T2 construct: also called huPSMA; hPSMA

[4] = biological target: T1, human PSMA-Fc; test: Octet; remark: listed apart in the source
[5] = biological target: T3, human CD3 epsilon (human, UniProt P07766 23-126, limits assumed); test: BLI or SPR
T3 construct: also called huCD3e

[6] = biological target: T4, cynomolgus monkey CD3 epsilon (cynomolgus monkey, UniProt Q95LI5 22-117, limits assumed); test: BLI or SPR
T4 construct: also called cyCD3e; cyno CD3
T4 sequence (looked up): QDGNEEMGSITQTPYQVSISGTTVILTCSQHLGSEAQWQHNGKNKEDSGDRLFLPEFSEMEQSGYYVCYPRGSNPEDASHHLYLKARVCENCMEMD

[7] = biological target: T5, cynomolgus monkey PSMA (cynomolgus monkey, UniProt A0A2K5VNZ0 44-750); test: BLI or SPR
T5 construct: also called cyPSMA; cyno PSMA

[8] = biological target: T2, human PSMA; test: BLI or SPR
[9] = biological target: T2, human PSMA; test: binding kinetics, uTCE

T3 sequence (P07766 23-126 limits assumed): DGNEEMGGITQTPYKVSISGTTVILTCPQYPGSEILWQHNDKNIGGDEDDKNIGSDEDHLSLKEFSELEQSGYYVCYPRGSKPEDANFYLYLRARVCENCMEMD
T2 sequence (Q04609 44-750 limits assumed): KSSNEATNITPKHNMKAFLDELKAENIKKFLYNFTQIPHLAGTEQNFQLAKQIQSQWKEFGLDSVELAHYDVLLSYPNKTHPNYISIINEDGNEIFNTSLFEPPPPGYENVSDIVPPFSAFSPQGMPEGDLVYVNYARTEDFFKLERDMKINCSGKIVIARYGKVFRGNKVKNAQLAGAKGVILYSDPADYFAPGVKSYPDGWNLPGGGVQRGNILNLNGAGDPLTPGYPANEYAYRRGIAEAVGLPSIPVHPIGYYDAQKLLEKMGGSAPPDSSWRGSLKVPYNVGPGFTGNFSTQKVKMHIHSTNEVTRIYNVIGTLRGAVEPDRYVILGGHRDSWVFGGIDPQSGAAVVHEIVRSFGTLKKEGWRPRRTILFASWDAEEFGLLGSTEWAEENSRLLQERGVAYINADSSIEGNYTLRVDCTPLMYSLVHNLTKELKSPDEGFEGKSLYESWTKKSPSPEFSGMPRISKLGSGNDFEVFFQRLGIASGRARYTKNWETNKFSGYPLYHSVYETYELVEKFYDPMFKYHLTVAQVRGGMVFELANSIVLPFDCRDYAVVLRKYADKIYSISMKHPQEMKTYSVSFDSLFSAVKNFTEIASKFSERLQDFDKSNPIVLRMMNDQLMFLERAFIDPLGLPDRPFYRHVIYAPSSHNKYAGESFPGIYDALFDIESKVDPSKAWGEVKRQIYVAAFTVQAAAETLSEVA
T1 sequence (Q04609 44-750 limits assumed): as above

B1: uTCE of AC3265 (bispecific antibody)
chain: QVQLVESGGGVVQPGRSLRLSCAASGRTFGIYVMGWYRQAPGKEREFVAAISWSGSNRLVSDSVKGRFTISRDNSKNTLYLQMNSLRAEDTAVYYCAASNRLYGRTWYDFNESDYWGQGTQVTVSSGGGGSGGGSELVVTQEPSLTVSPGGTVTLTCRSSNGAVTSSNYANWVQQKPGQAPRGLIGGTNKRAPGTPARFSGSLLGGKAALTLSGVQPEDEAVYYCALWYPNLWVFGGGTKLTVLGATPPETGAETESPGETTGGSAESEPPGEGEVQLLESGGGIVQPGGSLKLSCAASGFTFNTYAMNWVRQAPGKGLEWVARIRSKYNNYATYYADSVKDRFTISRDDSKNTVYLQMNNLKTEDTAVYYCVRHENFGNSYVSWFAHWGQGTLVTVSS
notes: Linker given only as 9 residues; also called PSMA.55
Kd [1]: 2.7 nM
koff [1]: 0.00028 s⁻¹
kon [1]: 104000 M⁻¹ s⁻¹
Kd [2]: 2.7 nM

B2: uTCE of AC3329 (bispecific antibody)
chain: QVQLVESGGGVVQPGRSLRLSCAASGRTFGIYVMGWVRQAPGKEREFVAAISWSGSNRKVSDSVKGRFTISRDNSKNTLYLQMNSLRAEDTAVYYCAASNRLYGRTWYDFNESDYWGQGTQVTVSSGGGGSGGGSELVVTQEPSLTVSPGGTVTLTCRSSNGAVTSSNYANWVQQKPGQAPRGLIGGTNKRAPGTPARFSGSLLGGKAALTLSGVQPEDEAVYYCALWYPNLWVFGGGTKLTVLGATPPETGAETESPGETTGGSAESEPPGEGEVQLLESGGGIVQPGGSLKLSCAASGFTFNTYAMNWVRQAPGKGLEWVARIRSKYNNYATYYADSVKDRFTISRDDSKNTVYLQMNNLKTEDTAVYYCVRHENFGNSYVSWFAHWGQGTLVTVSS
notes: also called PSMA.119
Kd [1]: 3.2 nM
koff [1]: 0.000248 s⁻¹
kon [1]: 80000 M⁻¹ s⁻¹
Kd [2]: 3.2 nM
Kd [3]: 4.1 nM

B3: uTCE of AC3342 (bispecific antibody)
chain: QVQLVESGGGVVQPGRSLRLSCAASGRTFGIYVMGWVRQAPGKEREFVAAISWSGSNRLVSDSVKGRFTISRDNSKNTLYLQMNSLRAEDTAVYYCAASNKLYGRTWYDFNESDYWGQGTQVTVSSGGGGSGGGSELVVTQEPSLTVSPGGTVTLTCRSSNGAVTSSNYANWVQQKPGQAPRGLIGGTNKRAPGTPARFSGSLLGGKAALTLSGVQPEDEAVYYCALWYPNLWVFGGGTKLTVLGATPPETGAETESPGETTGGSAESEPPGEGEVQLLESGGGIVQPGGSLKLSCAASGFTFNTYAMNWVRQAPGKGLEWVARIRSKYNNYATYYADSVKDRFTISRDDSKNTVYLQMNNLKTEDTAVYYCVRHENFGNSYVSWFAHWGQGTLVTVSS
notes: Linker given only as 9 residues; also called PSMA.132
Kd [1]: 5.6 nM
koff [1]: 0.000479 s⁻¹
kon [1]: 86600 M⁻¹ s⁻¹
Kd [2]: 5.6 nM

B4: uTCE of AC3356 (bispecific antibody)
chain: QVQLVESGGGVVQPGRSLRLSCAASGRTFGIYVMGWVRQAPGKEREFVAAISWSGSNRLVSDSVKGRFTISRDNSKNTLYLQMNSLRAEDTAVYYCAASNRLYGRTWYDFNESDYWGQGTQVTVSSGGGGSGGGSEVQLLESGGGIVQPGGSLKLSCAASGFTFNTYAMNWVRQAPGKGLEWVARIRSKYNNYATYYADSVKDRFTISRDDSKNTVYLQMNNLKTEDTAVYYCVRHENFGNSYVSWFAHWGQGTLVTVSSGATPPETGAETESPGETTGGSAESEPPGEGELVVTQEPSLTVSPGGTVTLTCRSSNGAVTSSNYANWVQQKPGQAPRGLIGGTNKRAPGTPARFSGSLLGGKAALTLSGVQPEDEAVYYCALWYPNLWVFGGGTKLTVL
notes: CD3.23 in VH-VL order; also called PSMA.5 (domain swap)
Kd [4]: 2.4 nM
koff [4]: 0.00018 s⁻¹
kon [4]: 76000 M⁻¹ s⁻¹
Kd [2]: 2.4 nM

B5: uTCE of AC3353 (bispecific antibody)
chain: QVQLVESGGGVVQPGRSLRLSCAASGRTFGIYVMGWVRQAPGKEREFVAAISWSGSNRLVSDSVKGRFTISRDNSKNTLYLQMNSLRAEDTAVYYCAASNRLYGRTWYDFNESDYWGQGTQVTVSSGGGGSELVVTQEPSLTVSPGGTVTLTCRSSNGAVTSSNYANWVQQKPGQAPRGLIGGTNKRAPGTPARFSGSLLGGKAALTLSGVQPEDEAVYYCALWYPNLWVFGGGTKLTVLGATPPETGAETESPGETTGGSAESEPPGEGEVQLLESGGGIVQPGGSLKLSCAASGFTFNTYAMNWVRQAPGKGLEWVARIRSKYNNYATYYADSVKDRFTISRDDSKNTVYLQMNNLKTEDTAVYYCVRHENFGNSYVSWFAHWGQGTLVTVSS
notes: also called PSMA.5 (5 mer)
Kd [4]: 2.1 nM
koff [4]: 0.00022 s⁻¹
kon [4]: 110000 M⁻¹ s⁻¹
Kd [2]: 2.1 nM

B6: AMX-500(1x-N) (bispecific antibody)
chain: ASSATPESGPGTSTEPSEGSAPGTSESATPESGPGSGPGTSESATPGTSESATPESGPGSEPATSGSETPGTSESATPESGPGTSTEPSEGSAPGSPAGSPTSTEEGTSESATPESGPGSEPATSGSETPGTSESATPESGPGSPAGSPTSTEEGSPAGSPTSTEEGTSTEPSEGSAPGTSESATPESGPGTSESATPESGPGTSESATPESGPGSEPATSGSETPGSEPATSGSETPGSPAGSPTSTEEGTSTEPSEGSAPGTSTEPSEGSAPGSEPATSGSETPGTSESATPEAGRSASHTPAGLTGPGTSESATPESQVQLVESGGGVVQPGRSLRLSCAASGRTFGIYVWGWFRQAPGKEREFVGAMSWSGSNRKVSDSVKGRFTISRDNSKNTLYLQMNSLRAEDTAVYYCAASNKEYGRTWYDFNESDYWGQGTQVTVSSGGGGSGGGSELVVTQEPSLTVSPGGTVTLTCRSSNGAVTSSNYANWVQQKPGQAPRGLIGGTNKRAPGTPARFSGSLLGGKAALTLSGVQPEDEAVYYCALWYPNLWVFGGGTKLTVLSESATPESGPGTSPGATPESGPGTSESATPEVQLVESGGGIVQPGGSLRLSCAASGFTFSTYAMNWVRQAPGKGLEWVGRIRTKRNNYATYYADSVKGRFTISRDDSKNTVYLQMNSLKTEDTAVYYCVRHENFGNSYVSWFAHWGQGTLVTVSSGTATPESGPG
notes: Lacks the mask linked to the CD3 domain
Kd [5]: 46.3 nM
koff [5]: 0.1 s⁻¹
kon [5]: 2.8e+06 M⁻¹ s⁻¹
Kd [6]: 38 nM
koff [6]: 0.1 s⁻¹
kon [6]: 2.9e+06 M⁻¹ s⁻¹
Kd [7]: 2400 nM
koff [7]: 0.039 s⁻¹
kon [7]: 16000 M⁻¹ s⁻¹
Kd [8]: 230 nM
koff [8]: 0.012 s⁻¹
kon [8]: 50000 M⁻¹ s⁻¹

B7: uTCE of AC2591 (PSMA-VHH; CB01H01R3, CD3.23) (bispecific antibody)
chain: LTGPATSGSETPGTEVQLVESGGGSVQAGGSLSLSCVASGRTFGIYVMGWFRQAPGKEREFVAAISWSGSNRLVSDSVKGRFTISRENAKNTIYLQMNGLKPEDTANYFCAASNRLYGRTWYDFNESDYWGQGTQVTVSSGGGGSGGGSELVVTQEPSLTVSPGGTVTLTCRSSNGAVTSSNYANWVQQKPGQAPRGLIGGTNKRAPGTPARFSGSLLGGKAALTLSGVQPEDEAVYYCALWYPNLWVFGGGTKLTVLGATPPETGAETESPGETTGGSAESEPPGEGEVQLLESGGGIVQPGGSLKLSCAASGFTFNTYAMNWVRQAPGKGLEWVARIRSKYNNYATYYADSVKDRFTISRDDSKNTVYLQMNNLKTEDTAVYYCVRHENFGNSYVSWFAHWGQGTLVTVSSGTAEAASASGEAGRSANHTPAG
notes: also called PSMA.2
Kd [4]: 1 nM
koff [4]: 0.00012 s⁻¹
kon [4]: 120000 M⁻¹ s⁻¹
Kd [1]: 1 nM
koff [1]: 0.000122 s⁻¹
kon [1]: 125000 M⁻¹ s⁻¹
Kd [2]: 1 nM
Kd [9]: 0.79 nM
koff [9]: 8.7e-05 s⁻¹
kon [9]: 110000 M⁻¹ s⁻¹

B8: uTCE of AC3354 (bispecific antibody)
chain: QVQLVESGGGVVQPGRSLRLSCAASGRTFGIYVMGWVRQAPGKEREFVAAISWSGSNRLVSDSVKGRFTISRDNSKNTLYLQMNSLRAEDTAVYYCAASNRLYGRTWYDFNESDYWGQGTQVTVSSGATPPETGAETESPGELVVTQEPSLTVSPGGTVTLTCRSSNGAVTSSNYANWVQQKPGQAPRGLIGGTNKRAPGTPARFSGSLLGGKAALTLSGVQPEDEAVYYCALWYPNLWVFGGGTKLTVLGATPPETGAETESPGETTGGSAESEPPGEGEVQLLESGGGIVQPGGSLKLSCAASGFTFNTYAMNWVRQAPGKGLEWVARIRSKYNNYATYYADSVKDRFTISRDDSKNTVYLQMNNLKTEDTAVYYCVRHENFGNSYVSWFAHWGQGTLVTVSS
notes: also called PSMA.5 (15 mer)
Kd [4]: 3.5 nM
koff [4]: 0.00027 s⁻¹
kon [4]: 77000 M⁻¹ s⁻¹
Kd [2]: 3.5 nM

B9: AMX-500(1x-C) (bispecific antibody)
chain: GTSESATPESQVQLVESGGGVVQPGRSLRLSCAASGRTFGIYVWGWFRQAPGKEREFVGAMSWSGSNRKVSDSVKGRFTISRDNSKNTLYLQMNSLRAEDTAVYYCAASNKEYGRTWYDFNESDYWGQGTQVTVSSGGGGSGGGSELVVTQEPSLTVSPGGTVTLTCRSSNGAVTSSNYANWVQQKPGQAPRGLIGGTNKRAPGTPARFSGSLLGGKAALTLSGVQPEDEAVYYCALWYPNLWVFGGGTKLTVLSESATPESGPGTSPGATPESGPGTSESATPEVQLVESGGGIVQPGGSLRLSCAASGFTFSTYAMNWVRQAPGKGLEWVGRIRTKRNNYATYYADSVKGRFTISRDDSKNTVYLQMNSLKTEDTAVYYCVRHENFGNSYVSWFAHWGQGTLVTVSSGTATPESGPGEAGRSASHTPAGLTGPATPESGPGTSESATPESGPGSPAGSPTSTEEGTSESATPESGPGSEPATSGSETPGTSESATPESGPGTSTEPSEGSAPGTSTEPSEGSAPGTSTEPSEGSAPGTSTEPSEGSAPGTSTEPSEGSAPGTSTEPSEGSAPGSPAGSPTSTEEGTSTEPSEGSAPGTSESATPESGPGSEPATSGSETPGTSESATPESGPGSEPATSGSETPGTSESATPESGPGTSTEPSEGSAPGTSESATPESGPGSPAGSPTSTEEGSPAGSPTSTEEGSPAGSPTSTEEGTSESATPESGPGTSTEPSEGSAPGTSESATPESGPGSEPATSGSETPGTSESATPESGPGSEPATSGSETPGTSESATPESGPGTSTEPSEGSAPGSPAGSPTSTEEGTSESATPESGPGSEPATSGSETPGTSESATPESGPGSPAGSPTSTEEGSPAGSPTSTEEGTSTEPSEGSAPGTSESATPESGPGTSESATPESGPGTSPSATPESGPGSEPATSGSETPGSEPATSGSETPGSPAGSPTSTEEGTSTEPSEGSAPGTSTEPSEGSAPGSEPATSGSETPGTSESAGEPEA
notes: Lacks the mask linked to the PSMA domain
Kd [5]: 34.4 nM
koff [5]: 0.1 s⁻¹
kon [5]: 3.2e+06 M⁻¹ s⁻¹
Kd [6]: 26.7 nM
koff [6]: 0.1 s⁻¹
kon [6]: 3.4e+06 M⁻¹ s⁻¹
Kd [7]: 2900 nM
koff [7]: 0.039 s⁻¹
kon [7]: 14000 M⁻¹ s⁻¹
Kd [8]: 353 nM
koff [8]: 0.012 s⁻¹
kon [8]: 35000 M⁻¹ s⁻¹
